Reference: publication PMC8154056

Target: Gloeobacter violaceus deeply-rooted thioredoxin reductase (GvDTR), renamed ferredoxin flavin-thioredoxin reductase (GvFFTR) (Gloeobacter violaceus) (UniProt Q7NMP6)
Test: ITC

## Gloeobacter violaceus plant-type [2Fe-2S] ferredoxin 1 (GvFdx1) (natural protein)
  stoichiometry N: 1
